According to patent US20080219985A1 (published 2008):
“And” between values parts separate entries of the source, which are not always exact repeats. Identical values can stand only once. Like-named read-outs stand apart in the source and are kept apart here.

How the values were obtained:
[1] = target: T1, GPCR73a receptor (human, UniProt Q8TCW9 1-393); assay: cell-based or functional assay
[2] = target: T2, GPCR73b receptor (Homo sapiens (Human), UniProt Q8NFJ6 1-384); assay: cell-based or functional assay
T2 sequence (Q8NFJ6 whole entry): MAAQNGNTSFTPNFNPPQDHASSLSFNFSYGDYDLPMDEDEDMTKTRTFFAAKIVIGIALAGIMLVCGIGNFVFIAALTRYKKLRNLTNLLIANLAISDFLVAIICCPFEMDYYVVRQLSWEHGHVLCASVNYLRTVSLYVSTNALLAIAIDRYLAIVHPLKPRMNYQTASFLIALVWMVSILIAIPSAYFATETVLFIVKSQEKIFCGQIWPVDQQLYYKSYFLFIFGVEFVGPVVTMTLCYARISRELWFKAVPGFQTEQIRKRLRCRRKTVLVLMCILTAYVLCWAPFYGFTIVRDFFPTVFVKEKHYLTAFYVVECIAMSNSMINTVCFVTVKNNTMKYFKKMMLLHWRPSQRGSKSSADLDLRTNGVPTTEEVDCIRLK

[3] = target: T2, GPCR73b receptor; assay: cell-based or functional assay; remark: listed apart in the source
[4] = target: T1, GPCR73a receptor; assay: cell-based or functional assay; remark: listed apart in the source
[5] = target: T3, PROK2 receptor on Wky12-22 cells (rat aortic smooth muscle cells) (rat); assay: cell-based or functional assay
T3 sequence (Q4AEG4 whole entry): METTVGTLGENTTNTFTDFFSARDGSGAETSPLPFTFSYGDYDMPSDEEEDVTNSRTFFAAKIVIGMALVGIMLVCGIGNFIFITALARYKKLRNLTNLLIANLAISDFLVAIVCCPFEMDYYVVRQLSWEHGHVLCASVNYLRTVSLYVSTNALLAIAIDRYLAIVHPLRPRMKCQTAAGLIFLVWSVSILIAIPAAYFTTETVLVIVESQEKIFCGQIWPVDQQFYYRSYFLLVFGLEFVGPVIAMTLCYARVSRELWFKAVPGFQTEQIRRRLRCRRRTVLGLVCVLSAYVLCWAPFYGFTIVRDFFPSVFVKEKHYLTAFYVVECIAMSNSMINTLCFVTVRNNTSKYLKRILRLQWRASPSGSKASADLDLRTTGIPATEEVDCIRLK

[6] = target: PROK2 receptor on 4T1.2 murine breast cancer cells (mouse); assay: cell-based or functional assay
[7] = target: T3, PROK2 receptor on Wky12-22 cells (rat …); assay: saturation binding of I-125 PROK2 to Wky12-22 cell monolayers at 4 C, two-site nonlinear regression, low affinity site
Procedure: (§1) The binding of PROK2 to Wky12-22 cells was assessed using I¹²⁵-radiolabeled PROK2. Wky12-22 cells were seeded at low cell density and cultured for three to four days until they reached about 70% confluency. The cells were placed on ice, the medium was removed, and the monolayers were washed. The cells were incubated with increasing amounts of I¹²⁵-PROK2 in the absence (total binding) and presence (nonspecific binding) of a large excess of unlabeled PROK2. After various times at 4° C., the binding media were removed, the monolayers were washed, and the cells were solubilized with a small volume of 1.0 N NaOH. Cell associated radioactivity was determined in a gamma counter. The specific binding of I¹²⁵-PROK2 was calculated as the difference between the total and nonspecific values. The measured radioacitivity was normalized to cell number that was determined on a set of parallel cultures. Nonlinear regression using a two-site model was used to fit the binding data for determination of Kd and Bmax.

[8] = target: T1, GPCR73a receptor; assay: cell-based or functional assay; remark: listed apart in the source
[9] = target: T3, PROK2 receptor on Wky12-22 cells (rat …); assay: saturation binding of I-125 PROK2 to Wky12-22 cell monolayers at 4 C, two-site nonlinear regression, high affinity site
Procedure: as §1

T1 sequence (Q8TCW9 whole entry): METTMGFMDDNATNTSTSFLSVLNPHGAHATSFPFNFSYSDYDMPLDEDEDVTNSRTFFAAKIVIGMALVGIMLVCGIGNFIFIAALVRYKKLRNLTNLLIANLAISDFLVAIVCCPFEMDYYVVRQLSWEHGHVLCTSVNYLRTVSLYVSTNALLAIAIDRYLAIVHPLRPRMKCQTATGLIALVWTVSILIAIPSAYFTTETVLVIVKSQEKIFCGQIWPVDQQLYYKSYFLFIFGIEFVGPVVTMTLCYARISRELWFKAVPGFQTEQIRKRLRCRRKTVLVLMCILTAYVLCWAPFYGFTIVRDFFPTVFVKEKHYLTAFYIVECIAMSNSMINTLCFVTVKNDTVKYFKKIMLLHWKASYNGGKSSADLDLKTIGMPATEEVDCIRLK

B1: human PROK2 produced in E. coli (in house) (ligand)
chain: AVITGACDKDSQCGGGMCCAVSIWVKSIRICTPMGKLGDSCHPLTRKVPFFGRRMHHTCPCLPGLACLRTSFNRFICLAQK
SRE-luciferase fold-induction at 1 ng/ml [1]: 4.1 fold-induction
SRE-luciferase fold-induction at 3.2 ng/ml [1]: 7.6 fold-induction
SRE-luciferase fold-induction at 10 ng/ml [1]: 10.2 fold-induction
SRE-luciferase fold-induction at 32 ng/ml [1]: 14.1 fold-induction
SRE-luciferase fold-induction at 100 ng/ml [1]: 17.6 fold-induction
SRE-luciferase fold-induction at 320 ng/ml [1]: 22 fold-induction
SRE-luciferase fold-induction at 1000 ng/ml [1]: 13.9 fold-induction
SRE-luciferase fold-induction at 1 ng/ml [2]: 0.7 fold-induction
SRE-luciferase fold-induction at 3.2 ng/ml [2]: 1.3 fold-induction
SRE-luciferase fold-induction at 10 ng/ml [2]: 1.9 fold-induction
SRE-luciferase fold-induction at 32 ng/ml [2]: 3 fold-induction
SRE-luciferase fold-induction at 100 ng/ml [2]: 4.7 fold-induction
SRE-luciferase fold-induction at 320 ng/ml [2]: 6.3 fold-induction
SRE-luciferase fold-induction at 1000 ng/ml [2]: 7.1 fold-induction
SRE-luciferase fold-induction at 1 ng/ml [3]: 1 fold-induction
SRE-luciferase fold-induction at 3.2 ng/ml [3]: 1.2 fold-induction
SRE-luciferase fold-induction at 10 ng/ml [3]: 1.7 fold-induction
SRE-luciferase fold-induction at 32 ng/ml [3]: 2.6 fold-induction
SRE-luciferase fold-induction at 100 ng/ml [3]: 4.4 fold-induction
SRE-luciferase fold-induction at 320 ng/ml [3]: 5.2 fold-induction
SRE-luciferase fold-induction at 1000 ng/ml [3]: 4.8 fold-induction
SRE-luciferase fold-induction at 1 ng/ml [4]: 1.9 fold-induction
SRE-luciferase fold-induction at 3.2 ng/ml [4]: 4 fold-induction
SRE-luciferase fold-induction at 10 ng/ml [4]: 8.4 fold-induction
SRE-luciferase fold-induction at 32 ng/ml [4]: 15 fold-induction
SRE-luciferase fold-induction at 100 ng/ml [4]: 19 fold-induction
SRE-luciferase fold-induction at 320 ng/ml [4]: 20.7 fold-induction
SRE-luciferase fold-induction at 1000 ng/ml [4]: 17.8 fold-induction

B2: human PROK2 (preparation not stated for the assay) (ligand)
chain: B1 chain
ERK 1/2 phosphorylation in Wky12-22 cells, 15 minutes after 100 ng/ml PROK2 [5]: 11 fold induction over basal
JNK phosphorylation in Wky12-22 cells, 15 minutes after 100 ng/ml PROK2 [5]: 3 fold
ERK phosphorylation in 4T1.2 cells (BIO-PLEX phospho-protein assay), maximal at 100 ng/ml PROK2 [6]: 1.8 fold

B3: human PROK2 with a carboxy-terminal Glu-Glu tag, produced in baculovirus (PROK2cee) (ligand)
chain: AVITGACDKDSQCGGGMCCAVSIWVKSIRICTPMGKLGDSCHPLTRKVPFFGRRMHHTCPCLPGLACLRTSFNRFICLAQKGLEYMPMD
notes: also called huPROK2-CEE-Bv; Baculovirus-expressed PROK2
Kd [7]: 31 nM
EC50 of ERK-Map kinase activity in Wky12-22 cells [5]: 0.5 nM and ~5 ng/ml
SRE-luciferase fold-induction at 1 ng/ml, PROK2 heated at 56 C for 30 minutes [8]: 1.8 fold-induction
SRE-luciferase fold-induction at 1 ng/ml, fresh PROK2 [8]: 2.5 fold-induction
SRE-luciferase fold-induction at 3.2 ng/ml, PROK2 heated at 56 C for 30 minutes [8]: 3.7 fold-induction
SRE-luciferase fold-induction at 3.2 ng/ml, fresh PROK2 [8]: 7.1 fold-induction
SRE-luciferase fold-induction at 10 ng/ml, PROK2 heated at 56 C for 30 minutes [8]: 10 fold-induction
SRE-luciferase fold-induction at 10 ng/ml, fresh PROK2 [8]: 13.1 fold-induction
SRE-luciferase fold-induction at 32 ng/ml, PROK2 heated at 56 C for 30 minutes [8]: 14.8 fold-induction
SRE-luciferase fold-induction at 32 ng/ml, fresh PROK2 [8]: 18.7 fold-induction
SRE-luciferase fold-induction at 100 ng/ml, PROK2 heated at 56 C for 30 minutes [8]: 18.6 fold-induction
SRE-luciferase fold-induction at 100 ng/ml, fresh PROK2 [8]: 20.5 fold-induction
Kd [9]: 1.5 nM
